According to the DeepSol protein solubility set:

Assay: soluble on expression in E. coli; label from the status in PepcDB or PDB records

| Sequence | soluble on expression in E. coli |
| --- | --- |
| METHLGWARSLEAVLSDRSALDAFQEWLIEYSSPQYLDLFFAIRAYERMALEGKPEKSQLSKSIYSKFLSSRTGNCEAIPKHFRAPIGEKLRHGTELEDRVFSHCSNFVQEFLRRQHEEFVGSEEFIEAFNKMSSTTADQLPGGSAHHSSHQNTMRRSSGTTSRKSAAQIATQLTAEALLKSKHDRHSKLGETKLEKMYPPTRQPYVCNATTSHNDSAVSSTFSGDTPEAHRMHSNRLRHIRDEQARENHGTMTLPRVEKASVDGQQWDHSSESGRRNFAMEITRKLLRHIDKVKLNDEMEKRIDDIEECRYTTIDMVNGTEPNDDLGKIDEDEELDDYLKMKMTDDSQKGSTNRSPKGPAGEPNKSGEGSKNTTLSPTNRAPAQLHNTIRVPRRKDYPRDTSASLKSHRHHQIDTNRMMSQSMCAPSYSSASSSYSRDSFAPAPTTRVNFAPGSSKSSQFYDSSGIGSMAPSAFSATSSLDYKDRRQHRKAPTPKKHSKIGKNLSNLITISYLGTDKIPVVTHVPNDGPMTLAEFKRHFALPNGAHQLFFKTECEDGSAPFQLLLIKDEHHLLPVFEGRIAAELR | not soluble |
| MNAQEFKEKKTETTGAHHAQRLGIAAGMTVQEVGWDEDCDSTISEAIEDILGEELLDEETDEACDVVLLWWRSDDGDLVDGLVDSIRPLADNGRIWLLTPGAGKQGALDPGEISESAQLAGLVQTKAERLGAWQGSCLVQRGNKQ | not soluble |
| MFYGGIDVAKYRHEICIVDESGNVILQIFVDNTRNGLDKLIHNLKRLEIEVSNVEFCLEATGHYWLSLYYHLTELGYKIHVINPIQSDALRNFYVRKTKTDRKDAHLLADIVRFGHISETKLASETVLKLQNLSRLRFEFVRQVGGLKNRVLGILDRIFPEYPQCFSNVFINTSRELLKSFTAPEDLAEADLSELTDFLNKHSRGRLGVDRAKQIQALAKGTFGINIALDAFTLELRLLVEQIEFIEEQISVIEEAIDQVMEEMRPSKDTAYRHVLETIPGIGPVLAASIIGEIGDINRFPNAKALVAYAGLDATVRSSGQFEGTRNRISKRGSPVLRHSIWLAAVSARRFNPEMKEFFEKKRSEGKHTLVATGAVARRMVHLIYSLWKDNRPFDPNYQWSPTNSR | not soluble |
| MGSDKIHHHHHHMSDNEIVAGIMRDHIINLLKEGKRIDDRGFEDYRPIEIEVGIIEKAEGSALVKLGSTQVLVGIKTTLGEPFPDTPNMGVMTTNVELVPLASPTFEPGPPDERAIELARVTDRGIRESRALNLEKMVIVPGKIVRVVFIDVHVLDHDGNLMDAIGIASIAALLNAKVPKVEYNEETGEVEILEEKEPLPVERIPIPVTFAKIGNILVVDPSLEEELVMDGRLTVTTDETGHISAVQKGEGGAFKLEEVMYAVETAFKKAEEIRKIVLEAIKKSGE | not soluble |
| MSAKAISEQTGKELLYKFICTTSAIQNRFKYARVTPDTDWARLLQDHPWLLSQNLVVKPDQLIKRRGKLGLVGVNLTLDGVKSWLKPRLGQEATVGKATGFLKNFLIEPFVPHSQAEEFYVCIYATREGDYVLFHHEGGVDVGDVDAKAQKLLVGVDEKLNPEDIKKHLLVHAPEDKKEILASFISGLFNFYEDLYFTYLEINPLVVTKDGVYVLDLAAKVDATADYICKVKWGDIEFPPPFGREAYPEEAYIADLDAKSGASLKLTLLNPKGRIWTMVAGGGASVVYSDTICDLGGVNELANYGEYSGAPSEQQTYDYAKTILSLMTREKHPDGKILIIGGSIANFTNVAATFKGIVRAIRDYQGPLKEHEVTIFVRRGGPNYQEGLRVMGEVGKTTGIPIHVFGTETHMTAIVGMALGHRPIP | soluble |
| MEKHDICPSISEYSYHEILGFYINPVENHLASKNMLIDLDERSVEGLLIFIAECNLGIENRVMEHMNKGIRKCKDHRFT | not soluble |
| MVSDEDELNLLVIVVDANPIWWGKQALKESQFTLSKCIDAVMVLGNSHLFMNRSNKLAVIASHIQESRFLYPGKNGRLGDFFGDPGNPPEFNPSGSKDGKYELLTSANEVIVEEIKDLMTKSDIKGQHTETLLAGSLAKALCYIHRMNKEVKDNQEMKSRILVIKAAEDSALQYMNFMNVIFAAQKQNILIDACVLDSDSGLLQQACDITGGLYLKVPQMPSLLQYLLWVFLPDQDQRSQLILPPPVHVDYRAACFCHRNLIEIGYVCSVCLSIFCNFSPICTTCETAFKISLPPVLKAKKKKLKVSA | not soluble |
| MNYRNKAFLKYEEDYFIERIIKALKDYEEIIIISNNPEEYKEFGLKVFKDIYPSQGPLSGIHSALNHIKNDYCLVVACDMPFINKDVVNYLGNIKEDYEILIPKFQERLQPLCAIYKKSCKDIMEKELINNSNKLIKTCFKFSMKVVEEFPFIEKVHKKEIKNFYNINTVDEYEDLIKKKEILEHHHHHH | not soluble |
| MKYDWILFDADETLFHFDAFKGLQLMFSRKGVDFTEQDFAHYQTVNKPLWVDYQDGKVTADELKHKRFTEWAEKLNTTTADLNSAFLEAMADICS | not soluble |
| MSDPLLQLISTGLGLWIRSRCDQVGDLDLTLQGSSLGLMRGRLQGAVLSARDVRFEGLPLHHAEISSGPIQLDLTWLRPGRMLALKDPFQVKGTVSMPGQPLGDALLSERWRELGDWIAEQLMGLKPLGQLRIENDELELVASVAAQRDPIRKRFRLRAEAGTVVLSASDSPETRAVLPMDPAITITDATLGAGLLTLQGHAIVTPE | not soluble |
| MILVVDNYDSFTYNLVDIVAQHTDVIVQYPDDDNVLNQSVDAVIISPGPGHPLDDQQLMKIISTYQHKPILGICLGAQALTCYYGGEVIKGDKVMHGKVDTLKVISHHQHLLYQDIPEQFSIMRYHSLISNPDNFPEELKITGRTKDCIQSFEHKERPHYGIQYHPESFATDYGVKIITNFINLVKEG | not soluble |
| ASVKDTYTDRLDDWNGIIAGNQYYDSKNDQMAKLNQELEGKVADSLSSISSQADRIYLWEKFSNYKTSANLTATYRKLEEMAKQVTNPSSRYYQDETVVRTVRDSMEWMHKHVYNSEKSIVGNWWDYEIGTPRAINNTLSLMKEYFSDEEIKKYTDVIEKFVPDPEHFRKTTDNPFKALGGNLVDMGRVKVIAGLLRKDDQEISSTIRSIEQVFKLVDQGEGFYQDGSYIDHTNVAYTGAFGNVLIDGLSQLLPVIQKTKNPIDKDKMQTMYHWIDKSFAPLLVNGELMDMSRGRSISRANSEGHVAAVEVLRGIHRIADMSEGETKQRLQSLVKTIVQSDSYYDVFKNLKTYKDISLMQSLLSDAGVASVPRTSYLSAFNKMDKTAMYNAEKGFGFGLSLFSSRTLNYEHMNKENKRGWYTSDGMFYLYNGDLSHYSDGYWPTVNPYKMPGTTETDAKRADSDTGKVLPSAFVGTSKLDDANATATMDFTNWNQTLTAHKSWFMLKDKIAFLGSNIQNTSTDTAATTIDQRKLESSNPYKVYVNDKEASLTEQEKDYPETQSVFLESSDSKKNIGYFFFKKSSISMSKALQKGAWKDINEGQSDKEVENEFLTISQAHKQNGDSYGYMLIPNVDRATFNQMIKELESSLIENNETLQSVYDAKQGVWGIVKYDDSVSTISNQFQVLKRGVYTIRKEGDEYKIAYYNPETQESAPDQEVFKKLEQHHHHHH | soluble |
| MSNISTPQPRIGFVSLGCPKNLVDSERILTELRTEGYQVVPRYDDAELVIVNTCGFIDSAVQESLEAIGEALNENGKVIVTGCLGAKENQIREVHPKVLEITGPHSYEQVLSHVHQYVPKPTHNPFTSLVPEQGVKLTPRHYAYLKISEGLEHHHHHH | soluble |
| MSSQSNTGNSIEAPQLPIPGQTNGSANVTVDGAGVNVGIQNGSQGQKTGMDLYFDQALNYMGEHPVITGFGAFLTLYFTAGAYKSISKGLNGGKSTTAFLKGGFDPKMNSKEALQILNLTENTLTKKKLKEVHRKIMLANHPDKGGSPFLATKINEAKDFLEKRGISK | soluble |
| MFTPIDQAIEHFKQNKFVIVMDDAGRENEGDLICAAENVSTEQMAFLVRHSSGYVCAPMTNAIADKLDLPLLRTGMKFESNDDDRHGTAYTITVDVAQGTTTGISAHDRSMTCRALADSSSTPKSFLKPGHICPLRAADGGVLQRRGHTEAGVDLCKLSGLSPVAVIGELVNDDEQGTMMRLNDCQAFGKKHGIPLISIEELAQYLKK | soluble |
| MSTWRDSLLPASFRGVGFFIEKAVVPVGRKGQLHEFPQRDEPYFESLGKQAQVHTLTAFIVGRDCFEKRDNLLQALEKDGAGELVHPWLGRMQVQV | not soluble |
| MGSDKIHHHHHHMTPEMYADKYREYASAMPTFQKSIFDQNPIYKIASGPDGNKPIERVKWTKDFLKAFSRYRQPGINAMDLHFYNWNIEHESDTPTDFGEDDWYRVINGTRELDQIINQQADLIKEGLQNIPQPESSLDHRLDRIDLVVGEWGNWHRTAFTAKPALKQQVTMRDAISTALMLDILQKNSDKVTMACVAQTINVLNALILTEGDQTILTPNYDVFMMYKAHRGNSALKIQTNQDQKNVYTFASKKDGEIILDVINANLNDQVKLTVELNREIESISKDFLQSDRPTDFNSSDNPDLIRMQQTEVKDFSKGEITLELSPASVNVFHIKTID | not soluble |
| MSLSSTNDTIRRLQRDLLFLQNELRFEKFVRQQHLQNIGKLHREHILDMAVESERQKLLLTNKRYKAQIELLNSEIDKHRSESQAALNRRVKWENDFNNKIKALREEKKAWKSEESELKSSIESLISQLESIRNSQIDIAFSKNQLELKLQLYETKLKEYEQHLSCVNISKKQVSSSSDTSFGNTKMDSSMILSNSEAVSDEQERELIESEKHRMKLESENLHLQANIELLKKDLEAINVVYEAKIFDLEKRLSSEANAPELHNPVNLNYDAQLSKISEIKENYDELLTRYRELEGKFLESQAEVEELKNFQKPLVDTGSSIHSSPGLQQSKFIIRNDSLHPKVGPPRRQSTDTSRSTFRQYEGHHHHHH | soluble |
| INYEKVGLKVGLEIHQQLNTKRKLFCHCPTILRDDEPDGEIVRVLRPSLSEMGEVDRAALIEARKGKKFIYQFYNDTTCLVELDEEPPHPPSEEALRIALEVALLMNMNVVDVAYTMRKIVIDGSNTSGFQRTIFLARDGYIETSEGKVGITSLCLEEDAARKIEDRGDAVVYNLDRLGIPLVEISTAPDIKTPKMAKEAARRIGEILRATGKVKRGLGTIRQDINISIKDGARIEVKGVQDLDLIEKVVENEVIRQLNLL | not soluble |
| GPGSMSTFETVKEEKLEFEKNCDQHIYEKALLTFKGVDGMDVYNCSAPFKYEGRTHIFGRVEKRLEWANSYVRLFVETNKDEFTLVPGNMVWQLEDPFVSNIDNEMFLGGTHIRKTNNRVFTYYCDFFRGTAENLSYFTTGPDNMKDIRLVKLANNKIGVFSRPKTAAHAFIGFTVINNVMELTPTVIEEAPPLNVIHTGAWGGVNQAYLLSSDKLGCISHYSYIDKDEDGNEITVYTNYSFVLNPYLREVEDARIIGTKGCYPKCSPKVHKLLDCAFSSGIVMREDGRCDLYSGLGDAHEGRITIDYPFEGHGTLIDNLHF | soluble |
| MGSDKIHHHHHHMAGFRPKASPRLSPDAERLVADALALDASGSRMEDAYWERRLSQRLGRLLKNGSQTALDAALEHLFKHNADASDVLAEQAETLAESAMVEVDGVRYDALLVAAPILAHTRYAIPSGSLKPDLAQTLAVHLQAHVLATGTKVALSPYLYSIDQLPRTHSDTFALTHKLAAAALSGTVPKVDLRDLPETAPILADPRYLLAVVVAPHEQALFRWQEDAKEHHAERSTCLEQWRSQVQATVALLLPGCEFELLLPDAFFLSCRESDKSIRPLTVRAAVNYLSGTLDVPAGQLAAVVAAFGEEVVEEYRVGFTMRGEKDVIYGIVWPVYGREAGEVDADEKGNPLEQICEELRNAGVEDIFRHAALFDPEYCEDCGTPLYADRNGEIVHAELPEDAPTQQPLFH | not soluble |
